10 sequences from the DeepSol protein solubility set can be followed below.

A short description of the data set: soluble on expression in E. coli; label from the status in PepcDB or PDB records.
For “MTIIKLERRDVRLLLLYEFRLGHSAMEAERNICGAMGEGALSYNTAKSWFQKFKNGDFSLEEIERSGRPVELNEEDLVKLVEEEPRLSLREMEEKLECCHSTIPRHLGRLGFTSKLGTWVPHELSASQKLTRVNVCTQLLTFRRKFDWLNNLVTGDEKWVLYVNHSRKRQWLPIGEKGIPTPKPDLHPKKIMICV”, the “soluble on expression in E. coli” value is “soluble”.
The same measure for “MPKKNNTKRAPPSVPKPSGPPPRLLQLTSSDGHLLQGDIRALLLSSTLAATIRELGYDKEYCAELKPVPVNNVVGFTLKLLIEWCDKHKEDDPAIALAEKDKKNICIPSWDRHFLSRLPMSNLFDLITAAYHLDVTGLINYGCKTVANSAKGKNAEEMRELFGIPEPWEQPSTSTATWDD”: “not soluble”; for “MSCTGFWRKLASGEECGAAARLLGAVLAIPAALYGLVVRLRALAYARGLSTVRHLDRPVISVGNLTVGGTGKTPMVAYLARRLMARGKRVAVISRGYGGSLEGETRIVSDGRTIVLSAAEAGDEPVHLATSVPGLMTVIGTDRYTAGLLALEQLDPDVFILDDGYQHLRLHRDLNILLMDCNRPLGNGRTLPAGLLREPQTAVRRADLVVYTRCTGGKAPAVHGMIPSCRAGHALTGAALLPDGEVQPLAALRGLRGVACAGIAEPEGFFDALRREGLDIVAAIPFADHASYGEREVSTLREAAAGADYLITTGKDGVKLSAHLARLLPVYATVLEMRPLDPAPLEAALDKVLTHISSCKSLEHHHHHHTHISSCKSLEHHHHHHTHISSCKSLEHHHHHHTHISSCKSLEHHHHHHTHISSCKSLEHHHHHHTHISSCKSLEHHHHHHTHISSCKSLEHHHHHH”: “not soluble”.
Consider “MGIKGSKPKLSKEDLEFLKKNTNFTEEQIKEWYKGFVQDCPKGHLTKEQFIKVYKDFFPSGSAEGFCEHVFRTFDTDNSGFIDFKEFLLAINVTSSGTPEQKLEWAFRMYDIDGNGTIDEKEMIKIIEAIYEMLGPEVTKSADDSPRKRAKMIFEKMDVNNDKELTLKEFVDGCLADKELFQILTNEVKK”, for which the “soluble on expression in E. coli” value was “not soluble”.
As to “MGAQSHSLEITSSVSAEKIFSGIVLDVDTVIPKAATGAYKSVEVKGDGGAGTVRIITLPEGSPITTMTVRTDAVNKEALSYDSTVIDGDILLGFIESIETHMVVVPTADGGSITKTTAIFHTKGDAVVPEENIKFADAQNTALFKAIEAYLIAN”, the “soluble on expression in E. coli” value was “soluble”.
As for “MVQELLKQLQNGEAKFADVLAYIESRFEHQPTAFKNGQQQNAATENQGSAKVFSLAQIEGLNQTETLSLFAEHYAAVLNTPEGTDHQNIRQFMQHGWDGVTFEGEALQAK”, the “soluble on expression in E. coli” value was “not soluble”.
The same measure for “MFFSFKIDGDELDKRMGGGVYVGQLFTIFGDNSEGKTLLSLRLAYGFLKNGISITYVSSQMPVREFISFSDALGYPVLNSVISGSMLYITPVFMLRRTRRANLDELINNDRIKEKSVLIIDSLNPGMFRDFEINSYMEKLRKFSENRVVIITANQASLDDATVLRINQLSTTIVTLHSKELGGVKRHFIDLVKYPMVVRSIQQSIPFRVEPGRGLIVEISSVS”: “not soluble”.
Turning to “MSLPISLTDFFPIQGGMATRMVIEGANFGTDLSQIKVFFNQKEASILNVKNSIIYLLVPKLPGNDCIVTVKVGNQEARFTRNFQYIENYSVTTIAGQPGTNLFVEGTLAAAQFGPVQHLAIDDENNLFITERNGSDGKGTCSVLNEESGTVTFLFKASDNLNVPTVNAQTQNVYIPLDGGYTFYELNPVNQWIAKSRLVLHPSKEQQEAGMDDFEINWKHSLAFSRYDNMIYTRSYGGDLIKVDPETRVGQKIGNFFPNTDSFIVAHPTQPEILYIAYAAKHVIYTYNIETGEHKLFAGAFGQSGWNDGIATDAEFNSPRQMSLDMEGNIYIADSGNHCIRMIDKNGIVTTPIGQPGEAGYADGSPDMALLNDPRGVAVNSEGDVYIADLGNRCIRKLTLQLEHHHHHH”, the “soluble on expression in E. coli” value was “soluble”.
For “MSMKGKETMSNEKIVVGKFGATYGIRGWLKVFSYTDNAESIFDYSPWYINQKGKWVEYKVESWKRHNKGMVAKLEGMDVREDAHLMTNFEIAIDPAVLPELSEDEFYWRELFGMHVVTTKGYDLGVVTDMLETGSNDVLVVKANLKDAFGQKERLIPFLEEQVIIKVDREAQRIEVDWDPGFLEHHHHHH”, the “soluble on expression in E. coli” value was “soluble”.
Next, “GMNVDFINPFLDSLLNVLKTMANMELKPGKPNLKKDNLAKGDVSGLIGMVGPQTKGSLSITFEETLILEIMNKMLGEKPESIDEEVTDLVGELTNMVTGGAKNLLSDKGYEFDMATPIVVSGKNHTIAHKSDGQKIIMPFSSIYGTAYIEICFEG”: “soluble”.
